The record followed here is patent US20230126400A1 (Alector, published 2023).

Test [1] addresses T1, cynomolgus (cyno) MS4A4A (cynomolgus).
T1 construct: also called cy4A; Cyno 4A
The experiment in a line: FACS, 300.19 cells, supernatant. The procedure:
(§1) Positive clones identified in Example 22 above were expanded and then rescreened for specificity against U937, K562, and/or 300.19 cells stably overexpressing human MS4A4A or cyno MS4A4A and parental U937, K562, and/or 300.19 cells. These experiments were performed using supernatants from hybridoma clones which had undergone further expansion after initial selection. Briefly, stably transfected cells were labeled with LIVE/DEAD Fixable Aqua Dead Cell Stain Kit (ThermoFisher Scientific Cat#L34957) on ice for 30 minutes. […] 2×10⁵ cells were aliquoted per well in 96-well U-bottom plates and incubated with 50 μl of culture supernatant on ice for 30 minutes. […] Following this secondary incubation, the cells were again washed twice with ice-cold FACS buffer and resuspended in a final volume of 200 μl of FACS buffer. Analysis was performed on a FACS Canto system (BD Biosciences), with gates drawn to exclude dead (Aqua-positive) cells.
(§2) The APC ratio was calculated for each antibody as follows. […] For cell lines overexpressing human MS4A4A (h4A) or cyno MS4A4A (cy4A), the ration was calculated by comparing the binding measured to the binding observed on the corresponding parental cell lines.
(In general: In flow cytometry, cells or beads pass a laser one at a time.)

Test [2] deals with T2, human MS4A4A ECL2 peptide (amino acid residues 159-179), free (human).
T2 construct: synthetic peptide; also called huMS4A4A-ELC2 free-peptide
T2 peptide: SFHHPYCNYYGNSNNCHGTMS
The experiment in a line: peptide ELISA, supernatant.

Test [3] has as its target T3, human MS4A4A (human, UniProt Q96JQ5 1-239). The test is described as follows: FACS, K562 cells, supernatant. The procedure: as §1, §2
Test [4] deals with T4, human MS4A4A ECL1 peptide (amino acid residues 86-98) (human).
T4 construct: synthetic peptide
T4 peptide: CMASNTYGSNPIS
The experiment in a line: peptide ELISA. The procedure:
Briefly, 96-well polystyrene plates were coated with […] of synthetic free or BSA-conjugated peptides in coating buffer (0.05M carbonate buffer, pH9.6, Millipore Sigma Cat#C3041) overnight at 4° C. Coated plates were then blocked with ELISA diluent (PBS+0.5% BSA+0.05% Tween20) for 1-hour, washed 3×300 μL in PBST (PBS+0.05% Tween20, Thermo Cat#28352), and then the antibodies were added to the plate (50 μl/well). After 30 mins incubation (room temperature, with shaking), the plates were washed 3×300 μL in PBST. […] After a final set of washes (3×300 μL in PBST), 50 μL of TMB substrate (BioFx Cat#TMBW-1000-01) was added and the reaction was then quenched after 5-10 mins with 50 μL of stop solution (BioFx Cat#BSTP-1000-01). The quenched reaction wells were detected for absorbance at 650nm with a BioTek Synergy Microplate Reader using GENS 2.04 software.
Background: An ELISA detects its analyte on a solid surface through an enzyme-linked reagent.

For test [5], the target named is T3, human MS4A4A. The experiment in a line: FACS, U937 cells overexpressing human MS4A4A, 5 ug/ml. The procedure: (§3) Purified huIgG1 chimeric anti-MS4A4A antibodies were screened for their ability to differentially bind MS4A4A on U937 cells stably overexpressing human MS4A4A, U937 cells with human MS4A4A knocked out, and parental U937 cells. Differential binding to MS4A4A expressed on these cells was assessed by FACS analysis using 5 μg/ml of purified anti-MS4A4A chimeric antibodies, as described above.

Test [6] addresses T3, human MS4A4A. The test is described as follows: FACS, parental U937 cells (endogenous human MS4A4A, not overexpressed), 5 ug/ml. Here is the method: as §3
For test [7], the target named is T3, human MS4A4A. The test is described as follows: FACS, U937 cells, supernatant. The procedure: as §1, §2

B1: anti-MS4A4A antibody 4A-209 (murine) (antibody, V domains shown)
VH: EVKLLESGGGLVQPGGSLKLSCAASGFDFSRYWMSWVRQAPGKGLEWIGEIKSDSSTINYTPSLKDKFIISRDNAKNTLYLQMSKVRSEDTALYYCARRGFYDYDAWFAYWGQGTLVTVSS
VL: QIVLTQSPTLMSASPGEKVTMTCSASSSVTYMYWYQQKPRSSPKPWIYLTSNRASGVPTRFSGSGSGTSHSLTISYMEAEDAATYYCQQWSSNPPTFGAGTKLELR
notes: murine hybridoma antibody
With B1, the “fold increase in MFI” value in test [1] and in test [3] was more than 2 fold in each case. Moreover, the binding result in test [2] and in test [4] was “no binding” in each case.

B2: anti-MS4A4A antibody 4A-209, huIgG1 chimera (antibody, V domains shown)
VH: EVKLLESGGGLVQPGGSLKLSCAASGFDFSRYWMSWVRQAPGKGLEWIGEIKSDSSTINYTPSLKDKFIISRDNAKNTLYLQMSKVRSEDTALYYCARRGFYDYDAWFAYWGQGTLVTVSS
VL: QIVLTQSPTLMSASPGEKVTMTCSASSSVTYMYWYQQKPRSSPKPWIYLTSNRASGVPTRFSGSGSGTSHSLTISYMEAEDAATYYCQQWSSNPPTFGAGTKLELR
For B2, the entries for the “ratio of MFI over secondary antibody alone” value (“ratio of MFI” for short) in test [5] and in test [6] were 19.8 ratio and 1.1 ratio, respectively.

B3: anti-MS4A4A antibody 4A-217 (murine) (antibody, V domains shown)
VH: EVKLVESGGGLVKPGGSLKLSCAASGFTFSSYGMSWVRQTPEKRLEWVAHISGGGTFTHYPDSVKGRFTISRDNAKNNLYLQMSSLRSEDTALYYCAREGAGTRFAYWGQGTLVTVSS
VL: DIQMTQTTSSLSASLGDRVTISCRPSQDISNSLNWYQQKPDGTVKLLIYSTSKLHSGVPSRFSGSGSGIDYSLTISNLEQEDIATYFCQQDYTLPWTFGGGTKLDVK
notes: murine hybridoma antibody
With B3, the “fold increase in MFI” value in test [1] and in test [7] was more than 2 fold each time. The binding result in test [2] and in test [4] was “no binding” in each case.

B4: anti-MS4A4A antibody 4A-217, huIgG1 chimera (antibody, V domains shown)
VH: EVKLVESGGGLVKPGGSLKLSCAASGFTFSSYGMSWVRQTPEKRLEWVAHISGGGTFTHYPDSVKGRFTISRDNAKNNLYLQMSSLRSEDTALYYCAREGAGTRFAYWGQGTLVTVSS
VL: DIQMTQTTSSLSASLGDRVTISCRPSQDISNSLNWYQQKPDGTVKLLIYSTSKLHSGVPSRFSGSGSGIDYSLTISNLEQEDIATYFCQQDYTLPWTFGGGTKLDVK
As to B4, the “ratio of MFI” value in test [5] was found to be 23.6 ratio; in test [6] it was 1.1 ratio.

B5: anti-MS4A4A antibody 4A-207 (murine) (antibody, V domains shown)
VH: EVNLEESGGGLVQPGGSMKLSCVASGFTFNNYWMNWVRQSPEKGLEWVAEIRLKSNNYATHYAESVKGRFTISRDDSKSSVYLQMNNLRPEDTAIYYCTTDPPMDYSGQGTPVTVSS
VL: QIVLTQSPAFMSASPGEKVTITCSASSSVSYMHWFQQKPGTSPKLWIYSTSNLVSGVPDRFSGSGSGTSYSLTISRMEAEYAATYYCHQRTSYPWTFGGGTKLEIK
notes: murine hybridoma antibody
As for B5, the “fold increase in MFI” value in test [1] and in test [3] was more than 2 fold each time.

B6: anti-MS4A4A antibody 4A-207, huIgG1 chimera (antibody, V domains shown)
VH: EVNLEESGGGLVQPGGSMKLSCVASGFTFNNYWMNWVRQSPEKGLEWVAEIRLKSNNYATHYAESVKGRFTISRDDSKSSVYLQMNNLRPEDTAIYYCTTDPPMDYSGQGTPVTVSS
VL: QIVLTQSPAFMSASPGEKVTITCSASSSVSYMHWFQQKPGTSPKLWIYSTSNLVSGVPDRFSGSGSGTSYSLTISRMEAEYAATYYCHQRTSYPWTFGGGTKLEIK
For the molecule B6, the “ratio of MFI” value in test [5] came out at 10 ratio; in test [6] it was 1.1 ratio.

B7: anti-MS4A4A antibody 4A-213, huIgG1 chimera (antibody, V domains shown)
VH: QVQLKESGPGLVAPSQSLSITCTVSGFSLTSYGVHWVRQPPGKGLEWLGVIWVGGSTNYNSALMSRLSISKDNSKSQVFLKMNSLQTDDTAMYYCARAVYYYGSSYYFDYWGQGTTVTVSS
VL: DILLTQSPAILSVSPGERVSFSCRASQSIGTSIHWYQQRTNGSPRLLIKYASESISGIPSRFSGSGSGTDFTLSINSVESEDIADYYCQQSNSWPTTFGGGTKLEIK
Consider B7, for which the “ratio of MFI” value was found to be 13 ratio in test [5] and 1.1 ratio in test [6].

B8: anti-MS4A4A antibody 4A-206, huIgG1 chimera (antibody, V domains shown)
VH: EVKLVESGGGLVKPGGSLKLSCAASGFTFSSYTMSWVRQTPEKRLEWVASLSSGGSTYYPDSVKGRFTISRDNARNILYLQMSSLRSEDTAMYYCAKDYYVSSYRWYFDVWGAGTTVTVSS
VL: DIQMTQITSSLSASLGDRVTISCRASQDISNYLNWYQQKPDGTVKLLIYYTSNLHSGVPSRFSGSGSGTDYSLTISNLEQEDIATYFCQQGKSFPWTFGGGTKLEIK
As for B8, the “ratio of MFI” value worked out at 18.5 ratio in test [5] and 1.1 ratio in test [6].

B9: anti-MS4A4A antibody 4A-208, huIgG1 chimera (antibody, V domains shown)
VH: EVHLQQSGAEVVKPGASVKLSCTASGFNIKDTYIHWVMQRPEQGLEWIGRIDPANDNTKYDPKFQGKATITSDTSSNTAYLHLSSLTSEDTAVYYCARIAYGSWALDYWGQGTSVTVSS
VL: DIVMTQSQKFMSTSVGDRVIVTCKASQNVDTNVAWYQQKPGQSPKTLIYSASFRYSGVPDRFTGSGSGTDFTLSISNVQSEDLAEYFCQQYNSYPWTFGGGTKLEIK
Take B9: the “ratio of MFI” value in test [5] stood at 19.9 ratio; in test [6], 1.1 ratio.

B10: anti-MS4A4A antibody 4A-201 (murine) (antibody, V domains shown)
VH: QVQLRESGPGLVAPSQSLSITCTVSGFSLSSFGVTWVRQPPGKGLEWLGIIWGDGSTNYHSALISRLSISKDNSKSQVFLKLNRLQTDDTATYYCAKRDYDGREDVMGYWGQGTSVTVSS
VL: DIVMTQSQKFMSTSVGDRVSITCKATQNVRTAVAWYQQKPGQSPKPLIYLASNRHTGVPDRFTGSGSGTDFTLTITNVQSEDLADYFCLQHWSYPLTFGAGTKLEMK
notes: murine hybridoma antibody
As for B10, the “fold increase in MFI” value in test [1] and in test [3] was more than 2 fold throughout. Further, the binding result in test [2] and in test [4] was “no binding” in each case.

B11: anti-MS4A4A antibody 4A-201, huIgG1 chimera (antibody, V domains shown)
VH: QVQLRESGPGLVAPSQSLSITCTVSGFSLSSFGVTWVRQPPGKGLEWLGIIWGDGSTNYHSALISRLSISKDNSKSQVFLKLNRLQTDDTATYYCAKRDYDGREDVMGYWGQGTSVTVSS
VL: DIVMTQSQKFMSTSVGDRVSITCKATQNVRTAVAWYQQKPGQSPKPLIYLASNRHTGVPDRFTGSGSGTDFTLTITNVQSEDLADYFCLQHWSYPLTFGAGTKLEMK
Turning to B11, the entries for the “ratio of MFI” value in test [5] and in test [6] were 8.9 ratio and 1.1 ratio, respectively.

B12: anti-MS4A4A antibody 4A-225 (antibody, V domains shown)
VH: QVQLKESGPGLVAPSQSLSITCTVSGFSLTSFGVNWFRQPPGKGLEWLGIIWGDGSTNFHSALMSRLSISKDNSKSQVFLKLNRLQTDDTATYYCAKRDYDGRDDVMGYWGQGTSVTVSS
VL: DIVMTQSQKIMSTSVGDRVSITCKASQTVRTAVAWYQQKPGQSPKALIYLASNRHTGVPDRFTGSGSGTDFTLTISNVQSEDLADYFCLQHWSYPLTFGAGTKLEMK
notes: murine hybridoma antibody
B12: the “fold increase in MFI” value in test [1] and in test [3] was more than 2 fold throughout. Also, the binding result in test [2] and in test [4] was “no binding” throughout.

B13: anti-MS4A4A antibody 4A-205, huIgG1 chimera (antibody, V domains shown)
VH: EVQLVESGGDLVKPGGSLKLSCAASGFTFSHYGMSWVRQTPDKRLDWVATIGRDGIHTDYRDSVKGRFTISRDNAKNTLYLQMGSLKSEDSAIFYCARHLYYGLYYSMDYWGQGTSVTVSS
VL: ENVLTQSPAIMSASPGEKVTMTCSASSSVSFMYWYQQKSSTSPKLWIYDTSKLASGVPGRFSGSGSGNSYSLTISSMEAEDVATYYCFQGSGYPLTFGSGTKLEIK
As to B13, the “ratio of MFI” value was determined as 25.3 ratio in test [5] and 1 ratio in test [6].
